Laboratory results reported in article PMC11445476, “CHC22 clathrin recruitment to the early secretory pathway requires two-site interaction with SNX5 and p115” (The EMBO Journal, 2024).

B2: full-length GST-SNX5 wild-type (natural protein, human, UniProt Q9Y5X3 1-404, looked up)
chain: MAAVPELLQQQEEDRSKLRSVSVDLNVDPSLQIDIPDALSERDKVKFTVHTKTTLPTFQSPEFSVTRQHEDFVWLHDTLIETTDYAGLIIPPAPTKPDFDGPREKMQKLGEGEGSMTKEEFAKMKQELEAEYLAVFKKTVSSHEVFLQRLSSHPVLSKDRNFHVFLEYDQDLSVRRKNTKEMFGGFFKSVVKSADEVLFTGVKEVDDFFEQEKNFLINYYNRIKDSCVKADKMTRSHKNVADDYIHTAACLHSLALEEPTVIKKYLLKVAELFEKLRKVEGRVSSDEDLKLTELLRYYMLNIEAAKDLLYRRTKALIDYENSNKALDKARLKSKDVKLAEAHQQECCQKFEQLSESAKEELINFKRKRVAAFRKNLIEMSELEIKHARNNVSLLQSCIDLFKNN
notes: sorting nexin 5, human, full-length, residues 1-404, amplified from human cDNA of the GM25256 cell line, in pGEX3; also called GST-SNX5 WT; WT; source: E. coli Rosetta 2 pLysS, purified (GSTrap, size exclusion); not shown: GST, N-terminal, kept
B4: His-SUMO-tagged CHC22 terminal domain, wild-type (domain or fragment, human, UniProt P53675 1-364, looked up)
chain: MAQILPVRFQEHFQLQNLGINPANIGFSTLTMESDKFICIREKVGEQAQVTIIDMSDPMAPIRRPISAESAIMNPASKVIALKAGKTLQIFNIEMKSKMKAHTMAEEVIFWKWVSVNTVALVTETAVYHWSMEGDSQPMKMFDRHTSLVGCQVIHYRTDEYQKWLLLVGISAQQNRVVGAMQLYSVDRKVSQPIEGHAAAFAEFKMEGNAKPATLFCFAVRNPTGGKLHIIEVGQPAAGNQPFVKKAVDVFFPPEAQNDFPVAMQIGAKHGVIYLITKYGYLHLYDLESGVCICMNRISADTIFVTAPHKPTSGIIGVNKKGQVLSVCVEEDNIVNYATNVLQNPDLGLRLAVRSNLAGAEKLF
notes: CHC22 clathrin heavy chain, N-terminal domain (TD), residues 1-364; also called CHC22 TD; His-bdSUMO-CHC22 TD; source: E. coli Rosetta 2 pLysS, purified (HisTrap, size exclusion); not shown: His, N-terminal, kept; bdSUMO, N-terminal, kept

Experiments:
Details in all cases: both partners purified
[1] = molecular target: B2
[2] = molecular target: T1, full-length GST-SNX5 phosphomimetic S226E mutant (human, UniProt Q9Y5X3 1-404, S226E)
T1 construct: sorting nexin 5, human, full-length (1-404) with phosphomimetic point mutation S226E in the BAR domain; The making of the mutant is not described; also called GST-SNX5 S226E; not shown: GST, N-terminal, kept
T1 sequence (looked up): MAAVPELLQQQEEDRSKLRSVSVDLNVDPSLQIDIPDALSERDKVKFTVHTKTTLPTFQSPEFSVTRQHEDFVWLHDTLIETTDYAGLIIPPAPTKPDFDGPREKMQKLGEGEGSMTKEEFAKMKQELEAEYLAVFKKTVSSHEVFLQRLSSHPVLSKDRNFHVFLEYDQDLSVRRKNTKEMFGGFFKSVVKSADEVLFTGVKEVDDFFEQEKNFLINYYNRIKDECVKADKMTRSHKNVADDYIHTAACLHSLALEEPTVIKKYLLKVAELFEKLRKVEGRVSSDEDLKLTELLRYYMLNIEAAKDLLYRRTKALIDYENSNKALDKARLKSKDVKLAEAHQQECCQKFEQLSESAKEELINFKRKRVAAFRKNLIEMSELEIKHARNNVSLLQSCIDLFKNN

His-tagged CHC22 Hub = molecular target: T2, His-tagged CHC22 Hub (human, UniProt P53675 1074-1640); test: pull-down; His-tagged bait on Ni-NTA HisPur beads, 15 µg purified GST-only or GST-SNX5 as prey in 250 µL His PD buffer for 45 min, immunoblot
T2 construct: CHC22 clathrin heavy chain, Hub domain (C-terminal third), residues 1074-1640; also called His-CHC22-Hub; not shown: 6xHis, N-terminal, kept
T2 sequence (looked up): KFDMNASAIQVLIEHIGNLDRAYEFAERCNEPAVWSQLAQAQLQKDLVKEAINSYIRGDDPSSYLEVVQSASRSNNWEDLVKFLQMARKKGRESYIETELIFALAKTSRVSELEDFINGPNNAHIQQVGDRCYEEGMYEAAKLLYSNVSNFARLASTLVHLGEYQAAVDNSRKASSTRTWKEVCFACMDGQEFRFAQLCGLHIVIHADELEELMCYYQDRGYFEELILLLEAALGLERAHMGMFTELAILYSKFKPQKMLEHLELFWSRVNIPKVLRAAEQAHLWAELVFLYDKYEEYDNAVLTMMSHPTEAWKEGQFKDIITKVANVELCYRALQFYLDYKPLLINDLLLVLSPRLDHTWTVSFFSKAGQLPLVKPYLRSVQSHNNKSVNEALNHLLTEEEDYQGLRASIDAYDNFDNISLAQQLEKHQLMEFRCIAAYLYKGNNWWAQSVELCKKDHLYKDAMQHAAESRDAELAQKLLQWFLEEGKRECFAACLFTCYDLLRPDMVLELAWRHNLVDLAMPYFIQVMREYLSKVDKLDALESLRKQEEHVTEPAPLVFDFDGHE

full-length His-p115 = molecular target: T3, full-length His-p115 (UniProt O60763 1-962); test: as above
T3 construct: p115, full-length, encoded by plasmid pIY119 (gift, Munro lab); not shown: 6xHis, N-terminal, kept
T3 sequence (looked up): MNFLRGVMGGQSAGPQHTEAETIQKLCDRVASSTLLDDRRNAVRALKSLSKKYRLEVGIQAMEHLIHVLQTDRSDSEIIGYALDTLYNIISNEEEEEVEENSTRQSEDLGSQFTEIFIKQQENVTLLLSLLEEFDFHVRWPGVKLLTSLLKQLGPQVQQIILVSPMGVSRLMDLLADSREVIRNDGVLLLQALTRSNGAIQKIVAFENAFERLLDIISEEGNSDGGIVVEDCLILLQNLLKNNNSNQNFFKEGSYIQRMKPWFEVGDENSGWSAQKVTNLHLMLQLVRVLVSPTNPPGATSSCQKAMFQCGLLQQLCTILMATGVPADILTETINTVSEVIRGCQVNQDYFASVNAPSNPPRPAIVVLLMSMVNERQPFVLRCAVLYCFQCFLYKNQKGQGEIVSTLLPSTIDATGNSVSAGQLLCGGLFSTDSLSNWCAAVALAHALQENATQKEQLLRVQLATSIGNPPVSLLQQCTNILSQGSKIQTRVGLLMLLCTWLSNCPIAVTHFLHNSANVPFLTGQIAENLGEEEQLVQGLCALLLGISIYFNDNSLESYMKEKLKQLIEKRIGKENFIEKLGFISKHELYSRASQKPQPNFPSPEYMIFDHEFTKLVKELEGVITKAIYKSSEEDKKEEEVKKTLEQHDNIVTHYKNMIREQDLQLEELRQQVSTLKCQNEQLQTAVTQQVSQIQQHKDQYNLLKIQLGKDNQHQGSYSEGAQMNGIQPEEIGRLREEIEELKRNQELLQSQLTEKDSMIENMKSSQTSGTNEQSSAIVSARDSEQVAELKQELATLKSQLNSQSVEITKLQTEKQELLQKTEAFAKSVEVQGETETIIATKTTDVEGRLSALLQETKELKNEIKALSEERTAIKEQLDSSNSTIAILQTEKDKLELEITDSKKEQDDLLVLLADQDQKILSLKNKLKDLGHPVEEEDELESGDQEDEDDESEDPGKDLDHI

full-length His-SNX1 = molecular target: T4, full-length His-SNX1 (UniProt Q13596 1-522)
T4 construct: SNX1, full-length, residues 1-522, sub-cloned from a plasmid of the Cullen lab into pET15b; also called recombinant SNX1; source: E. coli BL21 (DE3), purified (HisTrap, size exclusion); not shown: 6xHis, N-terminal, kept

[3] = molecular target: B4; test: pull-down; GST, GST-GGA2-HE or GST-p115 on glutathione beads, 12.5 µg purified His-bdSUMO-CHC22 TD (WT or Chim) in 250 µl CHC22 PD buffer for 45 min, immunoblot
[4] = molecular target: T5, His-SUMO-tagged CHC17 terminal domain (human, UniProt Q00610 1-364); test: pull-down; GST, GST-GGA2-HE or GST-p115 on glutathione beads, 12.5 µg purified His-bdSUMO-CHC17 TD in 250 µl CHC17 PD buffer for 60 min, immunoblot
T5 construct: CHC17 clathrin heavy chain, N-terminal domain (TD), residues 1-364; also called CHC17 TD; His-bdSUMO-CHC17 TD; source: E. coli Rosetta 2 pLysS, purified (HisTrap, size exclusion); not shown: His, N-terminal, kept; bdSUMO, N-terminal, kept
T5 sequence (looked up): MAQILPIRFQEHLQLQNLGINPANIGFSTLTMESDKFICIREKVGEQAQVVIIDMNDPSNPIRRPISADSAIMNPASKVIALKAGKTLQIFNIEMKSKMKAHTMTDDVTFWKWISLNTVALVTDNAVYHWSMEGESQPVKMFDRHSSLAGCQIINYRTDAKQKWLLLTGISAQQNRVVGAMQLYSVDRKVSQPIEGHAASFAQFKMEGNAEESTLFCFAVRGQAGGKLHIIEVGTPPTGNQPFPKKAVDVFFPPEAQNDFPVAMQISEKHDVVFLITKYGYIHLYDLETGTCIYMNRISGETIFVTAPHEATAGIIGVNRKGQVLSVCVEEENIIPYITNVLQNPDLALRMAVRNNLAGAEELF

full-length GST-p115 = molecular target: T6, full-length GST-p115 (UniProt O60763 1-962); test: pull-down; GST, GST-GGA2-HE or GST-p115 on glutathione beads, 12.5 µg purified His-bdSUMO-CHC22 TD (WT or Chim) in 250 µl CHC22 PD buffer for 45 min, immunoblot
T6 construct: p115, full-length, residues 1-962, amplified from pIY119 into pGEX3; not shown: GST, N-terminal, kept
T6 sequence (looked up): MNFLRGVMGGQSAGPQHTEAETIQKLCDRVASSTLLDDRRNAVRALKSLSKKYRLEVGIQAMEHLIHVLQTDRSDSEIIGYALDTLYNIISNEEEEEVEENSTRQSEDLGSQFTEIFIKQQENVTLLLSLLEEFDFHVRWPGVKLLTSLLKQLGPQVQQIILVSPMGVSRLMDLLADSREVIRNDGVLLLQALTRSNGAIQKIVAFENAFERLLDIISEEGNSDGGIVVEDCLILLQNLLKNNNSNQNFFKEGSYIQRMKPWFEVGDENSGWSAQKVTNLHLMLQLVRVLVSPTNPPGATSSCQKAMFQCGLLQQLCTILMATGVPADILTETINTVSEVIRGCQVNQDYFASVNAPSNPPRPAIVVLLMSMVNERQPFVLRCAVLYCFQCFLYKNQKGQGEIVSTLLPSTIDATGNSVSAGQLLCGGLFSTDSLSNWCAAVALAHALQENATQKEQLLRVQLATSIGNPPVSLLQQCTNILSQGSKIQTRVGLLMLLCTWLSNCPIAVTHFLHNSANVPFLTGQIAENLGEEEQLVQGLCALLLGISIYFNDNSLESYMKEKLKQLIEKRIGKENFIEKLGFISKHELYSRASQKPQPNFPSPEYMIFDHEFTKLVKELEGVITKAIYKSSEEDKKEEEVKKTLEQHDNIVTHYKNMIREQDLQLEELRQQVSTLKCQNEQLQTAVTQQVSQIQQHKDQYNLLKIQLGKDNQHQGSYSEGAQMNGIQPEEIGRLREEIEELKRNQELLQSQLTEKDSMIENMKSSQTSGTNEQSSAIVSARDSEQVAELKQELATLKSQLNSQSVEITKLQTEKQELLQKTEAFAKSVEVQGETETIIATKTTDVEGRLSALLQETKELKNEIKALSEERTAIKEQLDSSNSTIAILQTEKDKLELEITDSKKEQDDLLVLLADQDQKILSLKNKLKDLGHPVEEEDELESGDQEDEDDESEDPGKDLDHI

T4 sequence (Q13596 whole entry, the tested form may be a part): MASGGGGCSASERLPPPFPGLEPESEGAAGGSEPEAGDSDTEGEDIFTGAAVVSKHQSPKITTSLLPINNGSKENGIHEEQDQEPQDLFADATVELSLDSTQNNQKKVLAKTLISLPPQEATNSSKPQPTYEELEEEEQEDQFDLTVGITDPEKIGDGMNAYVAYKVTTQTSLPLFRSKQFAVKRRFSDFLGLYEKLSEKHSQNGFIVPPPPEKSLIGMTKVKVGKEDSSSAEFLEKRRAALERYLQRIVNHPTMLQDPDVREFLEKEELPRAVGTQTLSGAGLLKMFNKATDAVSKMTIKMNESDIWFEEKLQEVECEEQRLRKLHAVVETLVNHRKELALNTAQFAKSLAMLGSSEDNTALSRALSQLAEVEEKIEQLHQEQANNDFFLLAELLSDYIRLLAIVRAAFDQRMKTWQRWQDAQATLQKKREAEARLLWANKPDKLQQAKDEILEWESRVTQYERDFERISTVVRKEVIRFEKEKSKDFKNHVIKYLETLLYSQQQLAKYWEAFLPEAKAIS

B1: His-tagged CHC22 TxD (domain or fragment, human, UniProt P53675 1521-1640, looked up)
chain: WAQSVELCKKDHLYKDAMQHAAESRDAELAQKLLQWFLEEGKRECFAACLFTCYDLLRPDMVLELAWRHNLVDLAMPYFIQVMREYLSKVDKLDALESLRKQEEHVTEPAPLVFDFDGHE
notes: CHC22 clathrin heavy chain, trimerization domain; methods give residues 1521-1640, the results 1520-1640; Limits told in two ways (1521-1640 in methods, 1520-1640 in results); also called His-22TxD; His-CHC22 TxD; source: E. coli BL21 (DE3), purified (HisTrap, size exclusion); not shown: 6xHis, N-terminal, kept
B1: binds [1]; binds [2].

B2: binds (His-tagged CHC22 Hub); binds (full-length His-p115); binds (full-length His-SNX1).

B3: GST-GGA2-HE (domain or fragment, UniProt Q9UJY4 316-613, looked up)
chain: GRVTFGNRVTSSLGDIPVSRVFQNPAGCMKTCPLIDLEVDNGPAQMGTVVPSLLHQDLAALGISDAPVTGMVSGQNCCEEKRNPSSSTLPGGGVQNPSADRNLLDLLSAQPAPCPLNYVSQKSVPKEVPPGTKSSPGWSWEAGPLAPSPSSQNTPLAQVFVPLESVKPSSLPPLIVYDRNGFRILLHFSQTGAPGHPEVQVLLLTMMSTAPQPVWDIMFQVAVPKSMRVKLQPASSSKLPAFSPLMPPAVISQMLLLDNPHKEPIRLRYKLTFNQGGQPFSEVGEVKDFPDLAVLGAA
notes: GGA2, hinge-GAE (hinge-ear) fragment, residues 316-613; also called GGA2-hinge-GAE; hinge-ear fragment of GGA2; not shown: GST, N-terminal, kept
B3: binds [3]; binds [4].

B4: binds (full-length GST-p115).
